Data on 1 molecule can be found in paper PMC8303780, “Mutational Analysis of Redβ Single Strand Annealing Protein: Roles of the 14 Lysine Residues in DNA Binding and Recombination In Vivo”.

What all share (assay): EMSA; strands added sequentially; Anisotropy: 50 mM Tris-HCl pH 7.5, 1 mM DTT, 0.1 mg/mL BSA, 10 nM FAM48, 23 °C (Kd per monomer); gel assay: 10 µM Redβ, 50 µM nt of each oligo, PBS, 37 °C, 1% agarose at 22 °C
Common to all, as to conditions: protein: recombinant; tags: 6xHis removed by thrombin; residual N-terminal GSH; label: 5'-Cy3 and 5'-Cy5; complementary 50-mers; annealed by protein
(In general: A gel shift assay detects complexes by their altered migration in electrophoresis.)

The target of one series is T1, Redβ K132A (bacteriophage λ, UniProt P03698 1-261, K132A).
T1 sequence: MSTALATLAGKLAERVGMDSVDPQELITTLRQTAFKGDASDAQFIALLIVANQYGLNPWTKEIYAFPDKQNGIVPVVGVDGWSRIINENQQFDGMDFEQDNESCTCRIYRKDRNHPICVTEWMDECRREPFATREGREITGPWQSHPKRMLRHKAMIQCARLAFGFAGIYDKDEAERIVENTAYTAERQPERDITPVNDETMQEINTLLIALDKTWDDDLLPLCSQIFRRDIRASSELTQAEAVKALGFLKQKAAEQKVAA

The target in another series is T2, Redβ K172A (bacteriophage λ, UniProt P03698 1-261, K172A).
T2 sequence: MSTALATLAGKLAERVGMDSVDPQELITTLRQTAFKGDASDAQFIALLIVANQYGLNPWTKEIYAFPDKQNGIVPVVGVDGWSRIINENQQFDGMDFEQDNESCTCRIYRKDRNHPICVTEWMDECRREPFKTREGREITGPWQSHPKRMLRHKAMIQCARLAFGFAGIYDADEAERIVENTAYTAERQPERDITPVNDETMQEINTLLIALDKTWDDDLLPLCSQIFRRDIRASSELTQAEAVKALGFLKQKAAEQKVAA

For the next series, the target named is T3, Redβ K111A (bacteriophage λ, UniProt P03698 1-261, K111A).
T3 sequence: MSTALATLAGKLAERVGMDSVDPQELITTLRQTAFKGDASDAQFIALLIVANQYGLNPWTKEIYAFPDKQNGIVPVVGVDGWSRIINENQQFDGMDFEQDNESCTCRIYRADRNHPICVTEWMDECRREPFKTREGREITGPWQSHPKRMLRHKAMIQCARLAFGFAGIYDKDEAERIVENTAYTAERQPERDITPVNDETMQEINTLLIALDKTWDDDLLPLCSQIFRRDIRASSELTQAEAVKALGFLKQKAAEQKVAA

The target in the next series is T4, Redβ K258A (bacteriophage λ, UniProt P03698 1-261, K258A).
T4 sequence: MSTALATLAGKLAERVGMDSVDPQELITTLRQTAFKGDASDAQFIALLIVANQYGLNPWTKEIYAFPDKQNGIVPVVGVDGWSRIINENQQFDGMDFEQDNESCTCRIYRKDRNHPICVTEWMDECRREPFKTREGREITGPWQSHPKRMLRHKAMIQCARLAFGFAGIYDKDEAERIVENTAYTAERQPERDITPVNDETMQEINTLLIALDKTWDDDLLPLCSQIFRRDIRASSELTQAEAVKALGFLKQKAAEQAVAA

For another series, the target named is T5, Redβ K251A (bacteriophage λ, UniProt P03698 1-261, K251A).
T5 sequence: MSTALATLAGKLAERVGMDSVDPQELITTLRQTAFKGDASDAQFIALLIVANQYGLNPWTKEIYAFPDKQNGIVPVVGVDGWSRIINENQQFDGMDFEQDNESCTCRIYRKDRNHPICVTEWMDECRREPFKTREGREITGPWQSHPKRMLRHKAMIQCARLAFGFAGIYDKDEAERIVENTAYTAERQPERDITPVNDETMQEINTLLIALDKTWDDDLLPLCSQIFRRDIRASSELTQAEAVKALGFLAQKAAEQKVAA

In a further series the target is T6, Redβ K154A (bacteriophage λ, UniProt P03698 1-261, K154A).
T6 sequence: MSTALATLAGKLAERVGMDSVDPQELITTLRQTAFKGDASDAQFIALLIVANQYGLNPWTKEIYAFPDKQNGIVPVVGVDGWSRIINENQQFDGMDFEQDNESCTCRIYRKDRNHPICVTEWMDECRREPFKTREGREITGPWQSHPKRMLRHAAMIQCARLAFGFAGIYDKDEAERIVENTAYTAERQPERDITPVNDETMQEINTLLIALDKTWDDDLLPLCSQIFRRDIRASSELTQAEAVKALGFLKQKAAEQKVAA

B1: annealed duplex of Cy3 and Cy5 50-mers, strands added sequentially (dsDNA)
DNA 1: GCGGATGGCTTAGAGCAGAATCGCCCTGCATAGCTCGATTTTTGCGGATG
DNA 2: CCATCCGCAAAAATCGAGCTATGCAGGGCGATTCTGCTCTAAGCCATCCG
B1: the binding result was “no binding” with Redβ K132A; “no binding” in the series with Redβ K172A; “no binding” in the series with Redβ K111A; “binds” in the series with Redβ K258A; “binds” in the series with Redβ K251A; “no binding” with Redβ K154A.
